Source: patent US20080050378A1 (ONCOTHERAPY SCIENCE, published 2008)
One block for each binder: values may come before it.

B5: endogenous KIF11 (kinesin family member 11) (other)
chain: MASQPNSSAKKKEEKGKNIQVVVRCRPFNLAERKASAHSIVECDPVRKEVSVRTGGLADKSSRKTYTFDMVFGASTKQIDVYRSVVCPILDEVIMGYNCTIFAYGQTGTGKTFTMEGERSPNEEYTWEEDPLAGIIPRTLHQIFEKLTDNGTEFSVKVSLLEIYNEELFDLLNPSSDVSERLQMFDDPRNKRGVIIKGLEEITVHNKDEVYQILEKGAAKRTTAATLMNAYSSRSHSVFSVTIHMKETTIDGEELVKIGKLNLVDLAGSENIGRSGAVDKRAREAGNINQSLLTLGRVITALVERTPHVPYRESKLTRILQDSLGGRTRTSIIATISPASLNLEETLSTLEYAHRAKNILNKPEVNQKLTKKALIKEYTEEIERLKRDLAAAREKNGVYISEENFRVMSGKLTVQEEQIVELIEKIGAVEEELNRVTELFMDNKNELDQCKSDLQNKTQELETTQKHLQETKLQLVKEEYITSALESTEEKLHDAASKLLNTVEETTKDVSGLHSKLDRKKAVDQHNAEAQDIFGKNLNSLFNNMEELIKDGSSKQKAMLEVHKTLFGNLLSSSVSALDTITTVALGSLTSIPENVSTHVSQIFNMILKEQSLAAESKTVLQELINVLKTDLLSSLEMILSPTVVSILKINSQLKHIFKTSLTVADKIEDQKKELDGFLSILCNNLHELQENTICSLVESQKQCGNLTEDLKTIKQTHSQELCKLMNLWTERFCALEEKCENIQKPLSSVQENIQQKSKDIVNKMTFHSQKFCADSDGFSQELRNFNQEGTKLVEESVKHSDKLNGNLEKISQETEQRCESLNTRTVYFSEQWVSSLNEREQELHNLLEVVSQCCEASSSDITEKSDGRKAAHEKQHNIFLDQMTIDEDKLIAQNLELNETIKIGLTKLNCFLEQDLKLDIPTGTTPQRKSYLYPSTLVRTEPREHLLDQLKRKQPELLMMLNCSENNKEETIPDVDVEEAVLGQYTEEPLSQEPSVDAGVDCSSIGGVPFFQHKKSHGKDKENRGINTLERSKVEETTEHLVTKSRLPLRAQINL
notes: Endogenous protein in cell extracts; GenBank NM-004523 printed for the gene; also called EG5

Columns and labels:
[1] = biological target: B5; assay: immunoprecipitation from transfected LC319 cells
[2] = biological target: B5; assay: anti-Flag and anti-HA immunoprecipitation from transfected LC319 cells, silver stain, MALDI-TOF
Method: Cells were extracted in IP-buffer (0.5% NP-40, 50 mM Tris-HCl, 150 mM NaCl, and protease inhibitor) for 30 min on ice. Extracts were centrifuged at 14,000 rpm for 15 min, and supernatants were subjected to immunoprecipitation using anti-Flag M2 agarose (Sigma-Aldrich) and anti-HA beads (Sigma-Aldrich) for 1-2 hours. The beads were washed six times with IP-buffer, and protein was eluted by boiling the beads in Laemmli sample buffer after removing the final wash fraction. The eluted protein was resolved by SDS-PAGE and stained with silver staining. A 125 kDa-band was extracted by gel extraction, and used for mass spectrometric sequencing using MALDI-TOF mass spectrometry.

[3] = biological target: B5; assay: reciprocal immunoprecipitation with anti-KOC1 and anti-KIF11 polyclonal antibodies, western blot
[4] = biological target: T1, EYFP-fused KIF11 (EYFP-KIF11) (human, UniProt P52732 1-1056); assay: live-cell fluorescence microscopy of co-transfected COS-7 cells (co-localised particles)
T1 construct: Expressed in COS-7 cells; not shown: EYFP from pEYFP-N1 vector
T1 sequence: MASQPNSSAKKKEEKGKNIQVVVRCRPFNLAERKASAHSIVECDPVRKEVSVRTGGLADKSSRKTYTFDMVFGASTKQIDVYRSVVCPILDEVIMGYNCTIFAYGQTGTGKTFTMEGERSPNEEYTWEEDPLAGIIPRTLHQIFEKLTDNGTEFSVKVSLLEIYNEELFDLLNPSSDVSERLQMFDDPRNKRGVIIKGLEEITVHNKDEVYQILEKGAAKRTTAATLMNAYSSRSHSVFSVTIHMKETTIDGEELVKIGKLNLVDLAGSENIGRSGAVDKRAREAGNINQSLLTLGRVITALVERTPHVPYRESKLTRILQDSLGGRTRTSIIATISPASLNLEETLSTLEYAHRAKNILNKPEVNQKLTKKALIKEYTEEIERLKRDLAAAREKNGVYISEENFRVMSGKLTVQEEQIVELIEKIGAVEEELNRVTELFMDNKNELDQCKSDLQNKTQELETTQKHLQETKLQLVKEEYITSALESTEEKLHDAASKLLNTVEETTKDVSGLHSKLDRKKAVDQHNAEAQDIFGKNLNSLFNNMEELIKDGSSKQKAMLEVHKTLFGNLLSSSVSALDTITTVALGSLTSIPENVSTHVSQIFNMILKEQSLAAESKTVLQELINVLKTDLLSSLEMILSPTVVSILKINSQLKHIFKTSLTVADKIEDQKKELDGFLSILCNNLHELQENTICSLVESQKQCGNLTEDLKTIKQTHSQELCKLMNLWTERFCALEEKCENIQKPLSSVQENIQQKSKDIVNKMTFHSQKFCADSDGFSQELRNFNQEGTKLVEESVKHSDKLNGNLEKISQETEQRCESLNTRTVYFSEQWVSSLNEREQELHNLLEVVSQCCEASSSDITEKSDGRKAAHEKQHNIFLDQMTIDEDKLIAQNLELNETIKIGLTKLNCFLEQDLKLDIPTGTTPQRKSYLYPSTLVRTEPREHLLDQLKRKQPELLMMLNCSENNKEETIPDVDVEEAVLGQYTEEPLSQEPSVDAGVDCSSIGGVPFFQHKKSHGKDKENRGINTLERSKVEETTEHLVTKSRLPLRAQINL

[5] = biological target: dynactin 1 (DCTN1; p150, glued homolog, Drosophila), endogenous (human, UniProt Q14203 1-1278, limits assumed); assay: immunoprecipitation with anti-KIF11 polyclonal and anti-DCTN1 monoclonal antibody; 150-kDa partner first identified by MALDI-TOF from LC319 lysate
Chain of dynactin 1 (DCTN1; p150, glued homolog, Drosophila), endogenous (Q14203 whole entry): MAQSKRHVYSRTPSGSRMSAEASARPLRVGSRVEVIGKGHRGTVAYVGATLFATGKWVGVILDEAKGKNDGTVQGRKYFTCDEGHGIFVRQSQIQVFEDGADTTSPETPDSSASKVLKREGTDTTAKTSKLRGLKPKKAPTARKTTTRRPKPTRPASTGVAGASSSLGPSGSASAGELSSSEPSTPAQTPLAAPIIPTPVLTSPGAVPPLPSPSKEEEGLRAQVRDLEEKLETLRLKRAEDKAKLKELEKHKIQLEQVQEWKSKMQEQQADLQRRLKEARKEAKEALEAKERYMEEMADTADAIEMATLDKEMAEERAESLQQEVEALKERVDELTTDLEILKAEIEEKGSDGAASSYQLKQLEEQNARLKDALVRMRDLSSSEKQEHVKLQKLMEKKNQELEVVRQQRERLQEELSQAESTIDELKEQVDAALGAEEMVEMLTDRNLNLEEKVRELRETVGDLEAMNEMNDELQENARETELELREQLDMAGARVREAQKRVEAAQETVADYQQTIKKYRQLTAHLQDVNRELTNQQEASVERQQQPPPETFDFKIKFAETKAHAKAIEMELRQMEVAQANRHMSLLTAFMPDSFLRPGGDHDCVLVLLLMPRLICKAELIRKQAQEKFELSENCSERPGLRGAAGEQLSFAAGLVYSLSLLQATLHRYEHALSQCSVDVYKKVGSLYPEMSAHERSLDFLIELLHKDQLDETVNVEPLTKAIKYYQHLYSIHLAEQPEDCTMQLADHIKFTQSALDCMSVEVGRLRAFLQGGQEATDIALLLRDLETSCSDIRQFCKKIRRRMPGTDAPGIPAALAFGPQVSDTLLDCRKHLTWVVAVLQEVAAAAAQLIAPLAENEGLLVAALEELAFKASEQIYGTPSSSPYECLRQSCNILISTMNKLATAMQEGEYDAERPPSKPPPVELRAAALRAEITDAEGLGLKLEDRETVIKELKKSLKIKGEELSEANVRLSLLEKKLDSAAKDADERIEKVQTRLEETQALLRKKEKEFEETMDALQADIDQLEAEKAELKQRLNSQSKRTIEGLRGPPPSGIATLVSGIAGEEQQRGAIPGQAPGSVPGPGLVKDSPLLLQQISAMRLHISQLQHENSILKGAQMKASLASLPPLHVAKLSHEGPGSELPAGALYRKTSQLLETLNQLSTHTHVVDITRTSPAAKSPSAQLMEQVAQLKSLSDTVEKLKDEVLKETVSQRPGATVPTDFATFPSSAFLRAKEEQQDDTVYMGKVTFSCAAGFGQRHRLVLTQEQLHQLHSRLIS

[6] = biological target: B5; assay: immunoprecipitation from transfected A549 cells

binding result [1]: binds
B1: KOC1DEL3 (KOC1 deletion mutant 3; 2xRRM without KH, N-terminal FLAG, C-terminal HA) (other)
chain: MNKLYIGNLSENAAPSDLESIFKDAKIPVSGPFLVKTGYAFVDCPDESWALKAIEALSGKIELHGKPIEVEHSVPKRQRIRKLQIRNIPPHLQWEVLDSLLVQYGVVESCEQVNTDSETAVVNVTYSSKDQARQALDKLNGFQLENFTLKVAYIPDEMAAQQNPLQQPRGRRGLGQRGSSRQGSPGSVSKQKPCDLP
notes: Contains the two RRMs and lacks the four KH domains; also called the RRM domains; not shown: N-terminal FLAG tag; C-terminal HA tag

binding result [2]: binds
B2: FLAG- and HA-tagged KOC1 (pCAGGS-n3FH-KOC1; NH2-terminal FLAG, COOH-terminal HA) (other)
chain: MNKLYIGNLSENAAPSDLESIFKDAKIPVSGPFLVKTGYAFVDCPDESWALKAIEALSGKIELHGKPIEVEHSVPKRQRIRKLQIRNIPPHLQWEVLDSLLVQYGVVESCEQVNTDSETAVVNVTYSSKDQARQALDKLNGFQLENFTLKVAYIPDEMAAQQNPLQQPRGRRGLGQRGSSRQGSPGSVSKQKPCDLPLRLLVPTQFVGAIIGKEGATIRNITKQTQSKIDVHRKENAGAAEKSITILSTPEGTSAACKSILEIMHKEAQDIKFTEEIPLKILAHNNFVGRLIGKEGRNLKKIEQDTDTKITISPLQELTLYNPERTITVKGNVETCAKAEEEIMKKIRESYENDIASMNLQAHLIPGLNLNALGLFPPTSGMPPPTSGPPSAMTPPYPQFEQSETETVHLFIPALSVGAIIGKQGQHIKQLSRFAGASIKIAPAEAPDAKVRMVIITGPPEAQFKAQGRIYGKIKEENFVSPKEEVKLEAHIRVPSFAAGRVIGKGGKTVNELQNLSSAEVVVPRDQTPDENDQVVVKITGHFYACQVAQRKIQEILTQVKQHQQQKALQSGPPQSRRK
notes: also called pCAGGS-FLAG-tagged-KOC1; full length KOC1 construct; not shown: N-terminal FLAG tag; C-terminal HA tag

binding result [3]: binds
B3: endogenous KOC1 (KH domain containing protein over-expressed in cancer) (other)
chain: MNKLYIGNLSENAAPSDLESIFKDAKIPVSGPFLVKTGYAFVDCPDESWALKAIEALSGKIELHGKPIEVEHSVPKRQRIRKLQIRNIPPHLQWEVLDSLLVQYGVVESCEQVNTDSETAVVNVTYSSKDQARQALDKLNGFQLENFTLKVAYIPDEMAAQQNPLQQPRGRRGLGQRGSSRQGSPGSVSKQKPCDLPLRLLVPTQFVGAIIGKEGATIRNITKQTQSKIDVHRKENAGAAEKSITILSTPEGTSAACKSILEIMHKEAQDIKFTEEIPLKILAHNNFVGRLIGKEGRNLKKIEQDTDTKITISPLQELTLYNPERTITVKGNVETCAKAEEEIMKKIRESYENDIASMNLQAHLIPGLNLNALGLFPPTSGMPPPTSGPPSAMTPPYPQFEQSETETVHLFIPALSVGAIIGKQGQHIKQLSRFAGASIKIAPAEAPDAKVRMVIITGPPEAQFKAQGRIYGKIKEENFVSPKEEVKLEAHIRVPSFAAGRVIGKGGKTVNELQNLSSAEVVVPRDQTPDENDQVVVKITGHFYACQVAQRKIQEILTQVKQHQQQKALQSGPPQSRRK
notes: Endogenous protein in cell extracts; GenBank NM-006547 printed for the gene; also called IMP-3

binding result [4]: binds
B4: ECFP-fused KOC1 (ECFP-KOC1) (other)
chain: MNKLYIGNLSENAAPSDLESIFKDAKIPVSGPFLVKTGYAFVDCPDESWALKAIEALSGKIELHGKPIEVEHSVPKRQRIRKLQIRNIPPHLQWEVLDSLLVQYGVVESCEQVNTDSETAVVNVTYSSKDQARQALDKLNGFQLENFTLKVAYIPDEMAAQQNPLQQPRGRRGLGQRGSSRQGSPGSVSKQKPCDLPLRLLVPTQFVGAIIGKEGATIRNITKQTQSKIDVHRKENAGAAEKSITILSTPEGTSAACKSILEIMHKEAQDIKFTEEIPLKILAHNNFVGRLIGKEGRNLKKIEQDTDTKITISPLQELTLYNPERTITVKGNVETCAKAEEEIMKKIRESYENDIASMNLQAHLIPGLNLNALGLFPPTSGMPPPTSGPPSAMTPPYPQFEQSETETVHLFIPALSVGAIIGKQGQHIKQLSRFAGASIKIAPAEAPDAKVRMVIITGPPEAQFKAQGRIYGKIKEENFVSPKEEVKLEAHIRVPSFAAGRVIGKGGKTVNELQNLSSAEVVVPRDQTPDENDQVVVKITGHFYACQVAQRKIQEILTQVKQHQQQKALQSGPPQSRRK
notes: Expressed in COS-7 cells; not shown: ECFP from pECFP-N1 vector

Binder: B5
binding result [5]: binds

binding result [6]: binds
B6: KOC1DEL2 (KOC1 deletion mutant 2; 2xRRM+2xKH, N-terminal FLAG, C-terminal HA) (other)
chain: MNKLYIGNLSENAAPSDLESIFKDAKIPVSGPFLVKTGYAFVDCPDESWALKAIEALSGKIELHGKPIEVEHSVPKRQRIRKLQIRNIPPHLQWEVLDSLLVQYGVVESCEQVNTDSETAVVNVTYSSKDQARQALDKLNGFQLENFTLKVAYIPDEMAAQQNPLQQPRGRRGLGQRGSSRQGSPGSVSKQKPCDLPLRLLVPTQFVGAIIGKEGATIRNITKQTQSKIDVHRKENAGAAEKSITILSTPEGTSAACKSILEIMHKEAQDIKFTEEIPLKILAHNNFVGRLIGKEGRNLKKIEQDTDTKITISPLQELTLYNPERTITVKGNVETCAKAEEEIMKKIRESYENDIASMNLQAHLIPGLNLNALGLFPPTSGMPPPTSGPPSAMTPPYPQFEQSETE
notes: Lacks the C-terminal two KH domains; not shown: N-terminal FLAG tag; C-terminal HA tag
